One molecule from patent US20260250398A1 (ANTLERA THERAPEUTICS, published 2026) can be followed below.

Test [1] addresses T1, LRP6 (low-density lipoprotein receptor-related protein 6) (UniProt O75581 20-1370, limits assumed).
T1 sequence (looked up): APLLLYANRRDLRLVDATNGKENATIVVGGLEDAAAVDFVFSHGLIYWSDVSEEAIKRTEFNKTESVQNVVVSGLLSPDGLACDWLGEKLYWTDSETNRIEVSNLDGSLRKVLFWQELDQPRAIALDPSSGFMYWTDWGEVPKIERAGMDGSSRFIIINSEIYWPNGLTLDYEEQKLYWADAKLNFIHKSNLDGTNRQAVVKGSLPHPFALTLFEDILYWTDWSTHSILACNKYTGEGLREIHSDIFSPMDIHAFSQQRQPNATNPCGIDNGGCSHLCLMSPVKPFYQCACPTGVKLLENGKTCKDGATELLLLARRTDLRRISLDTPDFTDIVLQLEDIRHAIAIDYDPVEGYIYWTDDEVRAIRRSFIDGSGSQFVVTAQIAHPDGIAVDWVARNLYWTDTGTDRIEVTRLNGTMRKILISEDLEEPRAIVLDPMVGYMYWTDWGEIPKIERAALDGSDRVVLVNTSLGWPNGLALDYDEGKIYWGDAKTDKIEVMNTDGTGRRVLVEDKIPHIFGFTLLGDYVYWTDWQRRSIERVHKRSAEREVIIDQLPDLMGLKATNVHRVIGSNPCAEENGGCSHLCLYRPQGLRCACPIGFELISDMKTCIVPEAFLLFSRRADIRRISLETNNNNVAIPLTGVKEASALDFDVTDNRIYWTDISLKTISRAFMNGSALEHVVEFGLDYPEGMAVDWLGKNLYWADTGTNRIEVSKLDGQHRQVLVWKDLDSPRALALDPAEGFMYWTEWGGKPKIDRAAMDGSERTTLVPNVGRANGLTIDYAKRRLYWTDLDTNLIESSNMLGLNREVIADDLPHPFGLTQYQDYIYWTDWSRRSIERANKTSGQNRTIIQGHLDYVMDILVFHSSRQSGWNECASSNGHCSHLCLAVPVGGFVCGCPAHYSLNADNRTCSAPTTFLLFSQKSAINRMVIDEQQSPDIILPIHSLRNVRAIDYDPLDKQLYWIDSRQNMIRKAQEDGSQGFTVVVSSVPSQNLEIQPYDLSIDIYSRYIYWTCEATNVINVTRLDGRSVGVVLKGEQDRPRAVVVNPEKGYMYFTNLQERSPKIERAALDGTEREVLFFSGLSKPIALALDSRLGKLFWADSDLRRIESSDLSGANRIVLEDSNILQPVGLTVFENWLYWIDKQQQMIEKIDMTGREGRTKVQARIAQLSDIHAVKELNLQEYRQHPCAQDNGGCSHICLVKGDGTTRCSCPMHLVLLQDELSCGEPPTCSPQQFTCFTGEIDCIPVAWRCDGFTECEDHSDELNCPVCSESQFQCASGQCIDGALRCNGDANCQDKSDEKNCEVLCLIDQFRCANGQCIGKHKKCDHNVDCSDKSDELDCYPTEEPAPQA
The experiment in a line: cell-based or functional assay.

The target of test [2] is T1, LRP6 (low-density lipoprotein …). The experiment in a line: cell-based or functional assay. The source holds these as a separate data set.

B1: ANT-1 (LRP Diabody-Fc-FZD Fab; paratopes 2540, 2542; 5016) (bispecific antibody)
heavy 1: MNLLLILTFVAAAVAEFEVQLVESGGGLVQPGGSLRLSCAASGFNISSYYIHWVRQAPGKGLEWVASIYSSYGYTSYADSVKGRFTISADTSKNTAYLQMNSLRAEDTAVYYCARTVRGSKKPYFSGWAMDYWGQGTLVTVSSGGGGSDIQMTQSPSSLSASVGDRVTITCRASQSVSSAVAWYQQKPGKAPKLLIYSASSLYSGVPSRFSGSRSGTDFTLTISSLQPEDFATYYCQQYYFLITFGQGTKVEIKLEDKTHTKVEPKSSDKTHNCPPCPAPELLGGPSVFLFPPKPKDTLMISRTPEVTCVVVDVSHEDPEVKFNWYVDGVEVHNAKTKPREEQYNSTYRVVSVLTVLHQDWLNGKEYKCKVSNKALPAPIEKTISKAKGQPREPQVYTLPPIRELMTSNQVSLSCAVKGFYPSDIAVEWESNGQPENNYKTTPPVLDSDGSFFLVSKLTVDKSRWQQGNVFSCSVMHEALHNHYTQKSLSLSPGKSGSETPGTSESATPESGGGEVQLVESGGGLVQPGGSLRLSCAASGFNIHSSSIHWVRQAPGKGLEWVAATYSSFGSITYADSVKGRFTISADTSKNTAYLQMNSLRAEDTAVYYCARYHHPFGYALDYWGQGTLVTVSSASTKGPSVFPLAPSSKSTSGGTAALGCLVKDYFPEPVTVSWNSGALTSGVHTFPAVLQSSGLYSLSSVVTVPSSSLGTQTYICNVNHKPSNTKVDKKVEPKSCDKTHT
heavy 2: MNLLLILTFVAAAVAEFEVQLVESGGGLVQPGGSLRLSCAASGFNISYSSIHWVRQAPGKGLEWVASISPYYGYTYYADSVKGRFTISADTSKNTAYLQMNSLRAEDTAVYYCARSSYFPWFSAMDYWGQGTLVTVSSGGGGSDIQMTQSPSSLSASVGDRVTITCRASQSVSSAVAWYQQKPGKAPKLLIYSASSLYSGVPSRFSGSRSGTDFTLTISSLQPEDFATYYCQQYYWPITFGQGTKVEIKLEDKTHTKVEPKTSDKTHTCPPCPAPELLGGPSVFLFPPKPKDTLMISRTPEVTCVVVDVSHEDPEVKFNWYVDGVEVHNAKTKPREEQYNSTYRVVSVLTVLHQDWLNGKEYKCKVSNKALPAPIEKTISKAKGQPREPMVFDLPPSREEMTKNQVSLWCMVKGFYPSDIAVEWESNGQPENNYKTTPPVLDSDGSFFLYSKLTVDKSRWQQGNVFSCSVMHEALHNHYTQKSLSLSPGKSGSETPGTSESATPESGGGEVQLVESGGGLVQPGGSLRLSCAASGFNIHSSSIHWVRQAPGKGLEWVAATYSSFGSITYADSVKGRFTISADTSKNTAYLQMNSLRAEDTAVYYCARYHHPFGYALDYWGQGTLVTVSSASTKGPSVFPLAPSSKSTSGGTAALGCLVKDYFPEPVTVSWNSGALTSGVHTFPAVLQSSGLYSLSSVVTVPSSSLGTQTYICNVNHKPSNTKVDKKVEPKSCDKTHT
light: DIQMTQSPSSLSASVGDRVTITCRASQSVSSAVAWYQQKPGKAPKLLIYSASSLYSGVPSRFSGSRSGTDFTLTISSLQPEDFATYYCQQGVYLFTFGQGTKVEIKRTVAAPSVFIFPPSDEQLKSGTASVVCLLNNFYPREAKVQWKVDNALQSGNSQESVTEQDSKDSTYSLSSTLTLSKADYEKHKVYACEVTHQGLSSPVTKSFNRGEC
With B1, the “TOPFLASH % Wnt Maxima” value in test [1] was found to be 49 % Wnt Maxima. Besides, the “TOPFLASH Maximal Signal (% Wnt3a maxima)” value in test [2] amounted to 50 % Wnt3a maxima.
